Patent US20140227188

Tested on: T1, Cathepsin E-activatable 5-ALA prodrug, H-Arg-Gln-Ala-Gly-Phe-Ser-Leu-5-ALA-OH
T1 sequence: RQAGFSL

| Substance | proteolytic cleavage of the prodrug, LC-MS (50 pmol and 100 pmol enzyme) | proteolytic cleavage of the prodrug, fragments identified by LC-MS (50 pmol enzyme) |
| --- | --- | --- |
| Cathepsin D (purified proteolytic enzyme) | A higher concentration of Cath B and D (100 pmol) showed no sign of cleavage of the 5-ALA prodrug at the link between 5-ALA and the rest of the peptide substrate | – |
| Cathepsin E (purified proteolytic enzyme) | – | Cath E was the only tested protease capable of cleaving the 5-ALA prodrug to two major metabolic fragments |
| Cathepsin B (purified proteolytic enzyme) | A higher concentration of Cath B and D (100 pmol) showed no sign of cleavage of the 5-ALA prodrug at the link between 5-ALA and the rest of the peptide substrate | – |
